Laboratory results published in patent publication US20240124553A1.

Assays:
Assay in all cases: flow cytometry, transfected 293T cells
[1] = target: CHIKV E2-E1 envelope glycoproteins (strain S27), E2 mutant A41S (chikungunya virus strain S27) (UniProt Q8JUX5)
[2] = target: CHIKV E2-E1 envelope glycoproteins (strain S27), E2 mutant A89S (chikungunya virus strain S27) (UniProt Q8JUX5)
[3] = target: CHIKV E2-E1 envelope glycoproteins (strain S27), E2 mutant C105A (chikungunya virus strain S27) (UniProt Q8JUX5)
[4] = target: CHIKV E2-E1 envelope glycoproteins (strain S27), E2 mutant C125A (chikungunya virus strain S27) (UniProt Q8JUX5)
[5] = target: CHIKV E2-E1 envelope glycoproteins (strain S27), E2 mutant D117A (chikungunya virus strain S27) (UniProt Q8JUX5)
[6] = target: CHIKV E2-E1 envelope glycoproteins (strain S27), E2 mutant E109A (chikungunya virus strain S27) (UniProt Q8JUX5)
[7] = target: CHIKV E2-E1 envelope glycoproteins (strain S27), E2 mutant F100A (chikungunya virus strain S27) (UniProt Q8JUX5)
[8] = target: CHIKV E2-E1 envelope glycoproteins (strain S27), E2 mutant F129A (chikungunya virus strain S27) (UniProt Q8JUX5)
[9] = target: CHIKV E2-E1 envelope glycoproteins (strain S27), E2 mutant G114A (chikungunya virus strain S27) (UniProt Q8JUX5)
[10] = target: CHIKV E2-E1 envelope glycoproteins (strain S27), E2 mutant G44A (chikungunya virus strain S27) (UniProt Q8JUX5)
[11] = target: CHIKV E2-E1 envelope glycoproteins (strain S27), E2 mutant G82A (chikungunya virus strain S27) (UniProt Q8JUX5)
[12] = target: CHIKV E2-E1 envelope glycoproteins (strain S27), E2 mutant G98A (chikungunya virus strain S27) (UniProt Q8JUX5)
[13] = target: CHIKV E2-E1 envelope glycoproteins (strain S27), E2 mutant H131A (chikungunya virus strain S27) (UniProt Q8JUX5)
[14] = target: CHIKV E2-E1 envelope glycoproteins (strain S27), E2 mutant H62A (chikungunya virus strain S27) (UniProt Q8JUX5)
[15] = target: CHIKV E2-E1 envelope glycoproteins (strain S27), E2 mutant I121A (chikungunya virus strain S27) (UniProt Q8JUX5)
[16] = target: CHIKV E2-E1 envelope glycoproteins (strain S27), E2 mutant I48A (chikungunya virus strain S27) (UniProt Q8JUX5)
[17] = target: CHIKV E2-E1 envelope glycoproteins (strain S27), E2 mutant I54A (chikungunya virus strain S27) (UniProt Q8JUX5)
[18] = target: CHIKV E2-E1 envelope glycoproteins (strain S27), E2 mutant I93A (chikungunya virus strain S27) (UniProt Q8JUX5)
[19] = target: CHIKV E2-E1 envelope glycoproteins (strain S27), E2 mutant K107A (chikungunya virus strain S27) (UniProt Q8JUX5)
[20] = target: CHIKV E2-E1 envelope glycoproteins (strain S27), E2 mutant L111A (chikungunya virus strain S27) (UniProt Q8JUX5)
[21] = target: CHIKV E2-E1 envelope glycoproteins (strain S27), E2 mutant M97A (chikungunya virus strain S27) (UniProt Q8JUX5)
[22] = target: CHIKV E2-E1 envelope glycoproteins (strain S27), E2 mutant P106A (chikungunya virus strain S27) (UniProt Q8JUX5)
[23] = target: CHIKV E2-E1 envelope glycoproteins (strain S27), E2 mutant P128A (chikungunya virus strain S27) (UniProt Q8JUX5)
[24] = target: CHIKV E2-E1 envelope glycoproteins (strain S27), E2 mutant P75A (chikungunya virus strain S27) (UniProt Q8JUX5)
[25] = target: CHIKV E2-E1 envelope glycoproteins (strain S27), E2 mutant R38A (chikungunya virus strain S27) (UniProt Q8JUX5)
[26] = target: CHIKV E2-E1 envelope glycoproteins (strain S27), E2 mutant R68A (chikungunya virus strain S27) (UniProt Q8JUX5)
[27] = target: CHIKV E2-E1 envelope glycoproteins (strain S27), E2 mutant S118A (chikungunya virus strain S27) (UniProt Q8JUX5)
[28] = target: CHIKV E2-E1 envelope glycoproteins (strain S27), E2 mutant S124A (chikungunya virus strain S27) (UniProt Q8JUX5)
[29] = target: CHIKV E2-E1 envelope glycoproteins (strain S27), E2 mutant T116A (chikungunya virus strain S27) (UniProt Q8JUX5)
[30] = target: CHIKV E2-E1 envelope glycoproteins (strain S27), E2 mutant T94A (chikungunya virus strain S27) (UniProt Q8JUX5)
[31] = target: CHIKV E2-E1 envelope glycoproteins (strain S27), E2 mutant D132A (chikungunya virus strain S27) (UniProt Q8JUX5)
[32] = target: CHIKV E2-E1 envelope glycoproteins (strain S27), E2 mutant K66A (chikungunya virus strain S27) (UniProt Q8JUX5)
[33] = target: CHIKV E2-E1 envelope glycoproteins (strain S27), E2 mutant R104A (chikungunya virus strain S27) (UniProt Q8JUX5)

Substance	Binding Reactivity (% WT) [1] [% WT]	Binding Reactivity (% WT) [2] [% WT]	Binding Reactivity (% WT) [3] [% WT]	Binding Reactivity (% WT) [4] [% WT]	Binding Reactivity (% WT) [5] [% WT]	Binding Reactivity (% WT) [6] [% WT]	Binding Reactivity (% WT) [7] [% WT]	Binding Reactivity (% WT) [8] [% WT]	Binding Reactivity (% WT) [9] [% WT]	Binding Reactivity (% WT) [10] [% WT]	Binding Reactivity (% WT) [11] [% WT]	Binding Reactivity (% WT) [12] [% WT]	Binding Reactivity (% WT) [13] [% WT]	Binding Reactivity (% WT) [14] [% WT]	Binding Reactivity (% WT) [15] [% WT]	Binding Reactivity (% WT) [16] [% WT]	Binding Reactivity (% WT) [17] [% WT]	Binding Reactivity (% WT) [18] [% WT]	Binding Reactivity (% WT) [19] [% WT]	Binding Reactivity (% WT) [20] [% WT]	also measured
Mxra8-Fc (mouse Mxra8 extracellular domain fused to mouse IgG2b Fc) (Fc fusion)	4.9	102	-0.1	-0.2	-0.3	97.4	26.2	4.1	79.1	72.2	123	102	15.7	102	12.1	11.1	104	14.6	84.6	25.7	Binding Reactivity (% WT) [21]: 95.1 % WT; Binding Reactivity (% WT) [22]: 91.2 % WT; Binding Reactivity (% WT) [23]: 122 % WT; Binding Reactivity (% WT) [24]: 86.7 % WT; Binding Reactivity (% WT) [25]: 90.7 % WT; Binding Reactivity (% WT) [26]: 66.1 % WT; Binding Reactivity (% WT) [27]: 89.6 % WT; Binding Reactivity (% WT) [28]: 92.8 % WT; Binding Reactivity (% WT) [29]: 31.2 % WT; Binding Reactivity (% WT) [30]: 99.7 % WT
CHIKV mAb IM-CKV063 (antibody)	51.1	84	0.4	0.5	74.2	76.6	33.6	3.9	58.4	68.2	91.1	99.9	16.5	79.6	109	7.9	102	8.4	86.8	20.3	Binding Reactivity (% WT) [31]: 116 % WT; Binding Reactivity (% WT) [32]: 84.2 % WT; Binding Reactivity (% WT) [21]: 69.9 % WT; Binding Reactivity (% WT) [22]: 94.3 % WT; Binding Reactivity (% WT) [23]: 86 % WT; Binding Reactivity (% WT) [24]: 96.4 % WT; Binding Reactivity (% WT) [33]: 75.7 % WT; Binding Reactivity (% WT) [25]: 94.7 % WT; Binding Reactivity (% WT) [26]: 67.1 % WT; Binding Reactivity (% WT) [27]: 93.1 % WT; Binding Reactivity (% WT) [28]: 97.8 % WT; Binding Reactivity (% WT) [29]: 104 % WT; Binding Reactivity (% WT) [30]: 95.5 % WT
CHIKV mAb CHKV-88 (antibody)	89.8	118	-0.1	3.7	103	124	69.1	25.1	65.3	98.1	91.5	106	56.3	101	111	39.6	116	29.1	99.2	50.9	Binding Reactivity (% WT) [31]: 120 % WT; Binding Reactivity (% WT) [32]: 103 % WT; Binding Reactivity (% WT) [21]: 85.1 % WT; Binding Reactivity (% WT) [22]: 105 % WT; Binding Reactivity (% WT) [23]: 102 % WT; Binding Reactivity (% WT) [24]: 115 % WT; Binding Reactivity (% WT) [33]: 76 % WT; Binding Reactivity (% WT) [25]: 99.6 % WT; Binding Reactivity (% WT) [26]: 74.7 % WT; Binding Reactivity (% WT) [27]: 117 % WT; Binding Reactivity (% WT) [28]: 112 % WT; Binding Reactivity (% WT) [29]: 110 % WT; Binding Reactivity (% WT) [30]: 109 % WT
